B1: C22orf15 (parent)
chain: ITQSWQVSVRVQPRGRAHLLPNPY
B2: TMEM40 (parent)
chain: YGETDFHKQDGKAGLFSQEQYERN

Variants of: B1
Experiment: protein stability index of a GFP-peptide fusion (GPS, HEK-293T) (PSI 1-6); higher = more stable
Conditions: c terminus: a fixed tail appended
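Also: lentivirally expressed fusions sorted by FACS into six bins by GFP to DsRed ratio, PSI derived from sequencing read proportions per bin multiplied by bin number.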

Protein stability index of substitutions, site by site:
G15: T 1.51 | R 1.73 | W 4.12 | V 2.31 | Y 1.77
A17: V 2.58 | D 1.76 | Y 3.21 | T 2.28 | R 1.66 | C 3.18 | P 1.81 | H 3.03 | F 1.1 | K 1.34 | W 2.46 | G 3.81 | Q 1.68 | L 2.42 | N 1.7 | I 2.96 | S 2.46 | M 2.57
L20: R 1.7 | V 4.25 | C 1.97 | K 1.01 | N 2.16 | Y 3.07 | H 1.51 | T 3.22 | I 2.29 | P 1.17 | A 1.91 | S 1.03
L19: M 3.54 | G 2.23 | E 3.62 | P 1.78 | H 1.92 | A 2.42 | N 1.49 | R 2.43 | K 2.33 | V 1.6 | S 2.1 | D 1.82 | T 2.62 | C 2.07 | I 2.81 | Q 1.93
H18: Y 1.95 | K 1.74 | A 2.9 | M 1.83 | N 2.99 | L 3.13 | T 2.13 | D 2.29 | S 1.43 | V 2.19 | E 1.36 | I 1.29 | Q 2.99 | C 1.49 | P 2.7
P23: Q 1.93 | I 2.08 | F 3.34 | D 1.42 | R 1.87 | E 1.51 | L 1.46 | H 1.27 | K 2.09 | S 1.92 | W 1.11 | C 1.6 | G 1.32 | A 1.34 | N 3.05
R16: V 1.24 | C 4.64 | N 1.4 | Q 1 | F 3.25 | P 2.07 | L 1.69 | D 2.88 | T 2.14 | W 2.89 | I 2.26 | E 1.24 | H 1.89 | S 2.21 | Y 3.74
P21: D 1.56 | E 1.6 | H 2.78 | N 1.68 | G 1.76 | T 2.87 | K 1.64 | S 1.7 | R 1.79 | Q 1.52 | C 3.18 | V 1.94 | Y 2.38 | L 2.04 | I 1.91 | A 1.29
N22: F 1.49 | R 2.33 | D 1.62 | I 2.39 | T 1.89 | H 1.75 | L 3.15 | Q 2.43 | P 1.17 | V 1.75 | M 1.88 | E 1.59 | S 4.3 | K 2.17 | A 2.85 | Y 2.09
Y24: K 2.19 | C 1.71 | H 1.07 | A 1.39 | S 1.34 | I 2.29 | R 2.1 | T 2.34 | W 2.93 | F 2.47 | D 1.75 | N 1.54 | Q 1.47 | P 1.15

Variants of: B2
Experiment: as above
Conditions: c terminus: a fixed tail appended

Protein stability index: each site, then its substitutions
Y1: L 5.45 | S 5.24 | R 5.01 | A 4.89 | I 4.58 | W 4.37 | M 4.38 | C 4.55 | E 5.36 | D 4.92 | N 4.77 | P 5.22 | K 5.01 | F 4.88 | G 4.5 | T 5.14 | H 4.38 | Q 5.3
G2: D 4.95 | I 2.65 | A 3.49 | H 3.47 | C 3.42 | E 5.38 | F 4.61

Reference: the supplement of paper PMC10567573
